Blank lines part the entries; values can stand above or below the binder they belong to. Bridges are numbered along the chain shown (N, C = ends). The star is where a group is joined. Biotin = O=C1N[C@H]2[C@H](CS[C@H]2CCCCC(=O)*)N1
Key:
[1] = molecular target: hCCR5 (human, UniProt P51681 1-352); assay: cell-based or functional assay
[2] = molecular target: T1, hCCR2b (human, UniProt P41597 1-374); assay: cell-based or functional assay
T1 chain: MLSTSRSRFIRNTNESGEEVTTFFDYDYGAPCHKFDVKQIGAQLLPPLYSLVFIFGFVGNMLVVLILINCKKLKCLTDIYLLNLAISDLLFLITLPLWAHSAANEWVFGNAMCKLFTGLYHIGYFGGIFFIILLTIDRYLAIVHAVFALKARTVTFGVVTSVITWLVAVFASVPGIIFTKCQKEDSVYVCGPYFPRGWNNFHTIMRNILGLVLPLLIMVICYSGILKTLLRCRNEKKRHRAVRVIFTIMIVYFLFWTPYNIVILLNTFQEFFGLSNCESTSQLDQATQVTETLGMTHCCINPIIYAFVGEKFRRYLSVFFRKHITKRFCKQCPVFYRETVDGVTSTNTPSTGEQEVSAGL

hCCR5, sequence (P51681 whole entry): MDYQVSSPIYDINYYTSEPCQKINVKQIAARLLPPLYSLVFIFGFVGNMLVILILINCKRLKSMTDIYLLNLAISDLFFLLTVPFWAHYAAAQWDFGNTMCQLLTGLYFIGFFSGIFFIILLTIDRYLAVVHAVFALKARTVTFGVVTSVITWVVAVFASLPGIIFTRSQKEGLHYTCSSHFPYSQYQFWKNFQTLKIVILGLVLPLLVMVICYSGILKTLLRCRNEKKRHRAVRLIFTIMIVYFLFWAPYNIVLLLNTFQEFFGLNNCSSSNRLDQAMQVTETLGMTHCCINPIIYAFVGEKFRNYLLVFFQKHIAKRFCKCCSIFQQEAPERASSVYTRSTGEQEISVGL

- EC50, agonist activity in an Aequorin assay [1]: 0.5 nM
B1: biotinRANTES (CCL5) (ligand)
chain: SPYSSDTTPCCFAYIARPLPRAHIKEYFYTSGKCSNPAVVFVTRKNRQVCANPEKKWVREYINSLEK(Biotin)S-OH
modifications: disulfide 10-34, 11-50; also: TFA salt

- EC50, Aequorin assay (partial agonist) [2]: 23.5 nM
B2: recombinant native MCP-2 (ligand, human, UniProt P80075 24-99, looked up)
chain: QPDSVSIPITCCFNVINRKIPIQRLESYTRITNIQCPKEAVIFKTKRGKEVCADPKERWVRDSMKHLDQIFQNLKP

Reference: patent EP2718312B1 (TLA Targeted Immunotherapies AB, dated 2018)
